US11994512B2, “Single-cell genomic methods to generate ex vivo cell systems that recapitulate in vivo biology with improved fidelity” (Massachusetts Institute of Technology, priority 2018, dated 2024)

B1: Q64669 (protein, UniProt Q64669 1-274, looked up)
chain: MAARRALIVLAHSEKTSFNYAMKEAAVEALKKRGWEVLESDLYAMNFNPIISRNDITGELKDSKNFQYPSESSLAYKEGRLSPDIVAEHKKLEAADLVIFQFPLQWFGVPAILKGWFERVLVAGFAYTYAAMYDNGPFQNKKTLLSITTGGSGSMYSLQGVHGDMNVILWPIQSGILRFCGFQVLEPQLVYSIGHTPPDARMQILEGWKKRLETVWEETPLYFAPSSLFDLNFQAGFLMKKEVQEEQKKNKFGLSVGHHLGKSIPADNQIKARK
modifications: full-length
B2: Q6DI86 (protein, UniProt Q6DI86 1-829, looked up)
chain: MFRLRSISLLSWRAFPLRPFSCESLITQMQKCTNEEQVFDLIETNTATLSEQQVGCAFNVLWQFQKQKTVLEKNVDHVRNHPQFLTLCSITTNHIPAMSDATLVDVLYSIKQFAVESHHPLIEALVTEAWKRLERFDTNVLSIFSTCLADQHLYFSPLMGKIADIVNRRLETIQDLRALSVLMVSISSLISPCFQERLVIRTELLFDTVNSSKVNIARRILLFLRNVKYSHYPLLERCNQVFIRNMSHLDLESISKILNLYQFLQFHSFEFVEAARGRLAEMTLPSDHPESFVRLFAALGPVARPEIKKQLKSTILLLSEELSSQQALIVLGAMEDMESRNSHLLKKIVSVLYKHLDNYKSIELLKIIQALTFLHFQSKELFMKLRELLLSRLEASVIPSEISVLVSALSMLPHPHLSETAVSRIEAVLPQCDFRELNDLVVYLMRWIQSDLVCLASTTGKQLDLLQKLDQLGRHRLQQSTNLDLLWEELKSLKGEWLHESLVEESIAALLRFMDEIDYSNIAKVASFLSRTNYLNTLLLDRIASVAIQQVEKIHPFSVLAIILPFSILNYDPPQKDEFFGACVQCCNSYLGTLDPGTLVFLGFSLAVLEYFPEDLLKKMFNIEFLARLDSQLEILPSSLSARIQFRLMELNRAVCLECPELQVPWFHDRFCQRQFNKDTGVMNGAQQQIYKMLAEVLGGHQCVKPSALSPYYHTVGFECILDKRKKPLPYESHSIAPRKSLGMHWDSRVEPRLPPEAERIAIELLDVRAFCSNIPHLKGKSAMKKRHLEILGYRVIQIPYFEWNSMAMSTKDARMDYLREHLFGEGKS
modifications: full-length
B3: Q6J9G1 (protein, UniProt Q6J9G1 1-429, looked up)
chain: MGEKGHLSRVLLECSLSDKLCVVREKQYEVIIVPALLVGGFLILLAIILWLFIRGQRSQRQSPGPRGTASVPASRGRSQEAAGHGEKVLLPLKETSVEGFLRAATPRLAKLQVPREQLLEVLEQIHSGSCGTLYHATMTTKDHPKPKSVVLKALEDPVGLQEVQDFIGRIQFYQYLGKHKNLVQLEGCCTERLPLYMMLEDVVPGDLLSFLWTCRRDVMTMDGLLYDLTEKQIYHIGKQILLALEFLQEKHLFHGDVAARNILIQSDLTPKLCHLGLAYEVHAHGAISSARSSTIPLKWLAPERLLLRPASIRGDIWSFGILLYEMVTLGAPPYPEVPPTSILQYLQRKKIMKRPSSCSHAMYNIMKCCWRWSEDSRPLLGQLLQRLEAASRSADDKAVLQVPELVVPELYADVAGIRAESISYSFSVL
modifications: full-length

System: intracellular proteome of ENR+CD and ENR organoids
Test: LC-MS/MS TMT proteomics of ENR+CD versus ENR organoids
Type: cell-based, C57BL/6 mice
Conditions: for Average logFC: ENR+CD versus ENR organoids, sample pairs in aggregate (n=4, 2 technical replicates from two biological donors); for M1-1 Log2 Median Normalized / M1-2 Log2 Median Normalized / M2-1 Log2 Median Normalized / M2-2 Log2 Median Normalized: protein abundance ratio ENR+CD versus ENR organoids, LC-MS/MS TMT proteomics; for M1-1 Log2 Median Normalized: sample pair M1-1; for M1-2 Log2 Median Normalized: sample pair M1-2; for M2-1 Log2 Median Normalized: sample pair M2-1; for M2-2 Log2 Median Normalized: sample pair M2-2; for change: up = enriched in ENR+CD, down = enriched in ENR, FDR<0.05 and log fold change cut-off

Row | Molecule | Average logFC | M1-1 Log2 Median Normalized | M1-2 Log2 Median Normalized | M2-1 Log2 Median Normalized | M2-2 Log2 Median Normalized | change
1 | B1 | −1.573 | −1.603 | −2.001 | −1.5715 | −0.844 | down
2 | B2 | 1.459 | 1.46 | 1.066 | 1.4225 | 2.251 | up
3 | B3 | 1.195 | 1.631 | 1.194 | 0.7015 | 1.233 | up
